Reference: patent US20080050351A1 (Pfizer, published 2008)

Molecular target: T1, lecithin:cholesterol acyltransferase (LCAT), purified from human plasma (human, UniProt P04180 25-440)
T1 sequence (looked up): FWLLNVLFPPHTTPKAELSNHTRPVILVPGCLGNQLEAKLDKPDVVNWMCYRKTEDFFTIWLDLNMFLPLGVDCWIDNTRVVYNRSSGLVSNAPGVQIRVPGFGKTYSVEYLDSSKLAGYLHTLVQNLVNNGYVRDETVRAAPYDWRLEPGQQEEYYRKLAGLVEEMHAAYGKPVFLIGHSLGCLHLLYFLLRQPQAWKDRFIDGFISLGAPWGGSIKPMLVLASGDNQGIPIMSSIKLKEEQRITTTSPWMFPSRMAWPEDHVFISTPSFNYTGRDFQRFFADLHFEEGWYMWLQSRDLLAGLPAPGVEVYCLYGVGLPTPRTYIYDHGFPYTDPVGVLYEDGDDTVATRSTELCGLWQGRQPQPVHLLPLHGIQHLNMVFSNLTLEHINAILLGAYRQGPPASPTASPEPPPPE
Test: cell-based or functional assay

B1: peptide 221 (peptide)
peptide: DVLDLFRELLEELKQKLK
  ACTIVITY (%) LCAT: 12%
